The record followed here is patent US20090305962A1 (Amgen, published 2009).

The target in experiment [1] is T1, human IL-6 (human, UniProt P05231 30-212).
T1 construct: the protein used was bought recombinant human IL-6 (R&D Systems), in part biotinylated; also called rhIL-6; hIL-6
The experiment is described as follows: panning and screening on IL-6.

The target in experiment [2] is T1, human IL-6. In words: ELISA on IL-6 (also TF1 cell assay).

B1: SEQ ID NO 751 (designed binder)
chain: CLPSQFQCGSGYCISQRWVCDGENDCEDSSDEANCAGSVPTCLPSEFQCGNGRCLPLRLLCDGDDDCGDNSDEPLATCETSAPT
Take B1: the binding result in experiment [1] is given as “binds”.

B2: SEQ ID NO 730 (designed binder)
chain: CAPSQFRCESGQCLPANWRCDGENDCQDGSDESPAICEGTAPTCLPSQFQCGSGYCISQRWVCDGENDCEDSSDEANCAGSVPT
For the molecule B2, in experiment [1], the binding result was “binds”.

Turning to CEANELRCSSGRCLSVHWLCDGVDDCEDSSDEAGCPPRT (designed binder) [SEQ ID NO 600], the binding result in experiment [1] was “binds”.

B3: SEQ ID NO 716 (designed binder)
chain: CPPGEFPCSSGHCLSQALRCDGVPDCEDDSDETGCPPPTCLPSQFQCGSGYCISQRWVCDGENDCEDSSDEANCAGSVPT
In the case of B3, in experiment [1], the binding result is recorded as “binds”.

B4: SEQ ID NO 784 (designed binder)
chain: CLSSQFQCDNGNCVPQQWVCDGDNDCLDDSDETSCSAPASEPPGSLCPASQFPCSSGHCVPLNWVCDGVNDCVDGSDEAGCPPRTCLPDQFQCGSGYCISQRWVCDGENDCEDSSDEANCAGSVPT
As for B4, in experiment [1], the binding result was “binds”. For the molecule CLPSQFQCGSGYCISQRWVCDGEHDCEDSSDEANCAGSVPT (designed binder) [SEQ ID NO 538], the binding result in experiment [1] is “binds”. On to CLPSQFQCGSGWCISQRWVCDGENDCEDSSDEANCAGSVPT (designed binder) [SEQ ID NO 544], for which the binding result in experiment [1] was “binds”.

B5: SEQ ID NO 785 (designed binder)
chain: CQASEFPCDSGQCIPQPLGCDGDNDCADNSDEESCQPRTCPASQFPCSSGHCVPLNWVCDGVNDCVDGSDEAGCPPRTCLPDQFQCGSGYCISQRWVCDGENDCEDSSDEANCAGSVPT
Turning to B5, the binding result in experiment [1] was “binds”.

B6: SEQ ID NO 735 (designed binder)
chain: CAANEFRCRSTNTCIPQQWLCDGVNDCQDDSDEKSCRTPAPTCLPSQFQCGSGYCISQRWVCDGENDCEDSSDEANCAGSVPT
Turning to B6, the binding result in experiment [1] is “binds”.

B7: SEQ ID NO 629 (designed binder)
chain: CLSSQFQCSNGNCIPAAWLCDSDNDCGDDSDETSCPAPTCPSSQFQCSSGWCIPEDWRCDGVPDCGDGSDEASDHCGDSHILPFSTPGPST
As to B7, in experiment [1], the binding result is on record as “binds”.

B8: SEQ ID NO 764 (designed binder)
chain: CEAGEFRCRNGSCIPEAWGCDGVNDYLDNSDETNCPAHTCLSSEFQCGSGYCISQRWVCDGENDCEDSSDEANCAGSVPT
For the molecule B8, the binding result in experiment [1] is recorded as “binds”.

B9: SEQ ID NO 725 (designed binder)
chain: CLANEFRCSSGQCIPARWLCDGVNDCVDDSDEKDCPARTCLPSQFQCGSGYCISQRWVCDGENDCEDSSDEANCAGSVPT
On to B9, for which the binding result in experiment [1] is recorded as “binds”. In the case of CPSDEFTCDSGRCVSLNWLCDGVNDCGDNSDEAGCPTRT (designed binder) [SEQ ID NO 603], the binding result in experiment [1] was “binds”.

B10: SEQ ID NO 726 (designed binder)
chain: CLPGQFRCHSTDTCLPESWVCDGVNDCADDSDEASCPPHTCLPSQFQCGSGYCISQRWVCDGENDCEDSSDEANCAGSVPT
With B10, in experiment [1], the binding result was “binds”.

B11: SEQ ID NO 925 (designed binder)
chain: CLPDQFRCGNGQCMPLDWVCDGVNDCPDDSDEEGCPPRTCEPGQFQCGSGYCISQRWVCDGENDCEDGSDEATCAGSVPQCPSDEFRCRTGRCIPQAWRCDGVNDCVDNSDEECCKEHT
In the case of B11, the binding result in experiment [2] was “binds”. On to CPPDEFQCNSGSCLSQPLLCDGEDDCGDGSDEESCIAAEHT (designed binder) [SEQ ID NO 575], for which the binding result in experiment [1] is on record as “binds”.

B12: SEQ ID NO 787 (designed binder)
chain: CLPNEFTCDSGNCVPQALGCDGDNDCEDNSDESPALCAAPAHTCQANEFTCSSGNCLSPALLCDGVDDCGDNSDETYCASPAPTCLPSQFQCGSGYCISQRWVCDGENDCEDSSDEANCAGSVPT
For the molecule B12, the binding result in experiment [1] is “binds”.

B13: SEQ ID NO 743 (designed binder)
chain: CVPSQFQCRNNGICIPQNWHCDGVPDCEDSSDEESCGTTVHTCLPSQFQCGSGYCISQRWVCDGENDCEDSSDEANCAGSVPT
Turning to B13, the binding result in experiment [1] is listed as “binds”.

B14: SEQ ID NO 758 (designed binder)
chain: CRPSQFQCQNSSRCIPLGWRCDGDNDCEDGSDEKDCTATARTCLPDQFQCGSGYCLPQAWVCDGENDCEDGSDETNCPART
B14: in experiment [1], the binding result is given as “binds”.

B15: SEQ ID NO 768 (designed binder)
chain: CASNEFPCSNGNCIPGPLRCDGVNDCEDNSDESPLWPLHTCLPSQFQCGSGYCISQRWVCDGENDCEDSSDEANCAGSVPT
For the molecule B15, the binding result in experiment [1] is “binds”.

B16: SEQ ID NO 745 (designed binder)
chain: CPPGEFKCNSGNCVSPTWGCDGVDDCGDDSDEASAICEAPEHTCLPSQFQCGSGYCISQRWVCDGENDCEDSSDEANCAGSVPT
In the case of B16, in experiment [1], the binding result was “binds”.

B17: SEQ ID NO 715 (designed binder)
chain: CLADQFKCHNTNICIPGRLGCDGDPDCEDDSDEKGCPPHTCLPSQFQCGSGYCISQRWVCDGENDCEDSSDEANCAGSVPT
As for B17, in experiment [1], the binding result is reported as “binds”.

B18: SEQ ID NO 754 (designed binder)
chain: CPPSQFPCNSGNCVSAAWVCDGVDDCGDDSDESLAICPTSTCLPDQFQCGSGYCLPQRWVCDGVDDCEDSSDEKGCTPHT
As to B18, the binding result in experiment [1] is listed as “binds”.

B19: SEQ ID NO 720 (designed binder)
chain: CLASQFRCGNGSCLSQTLLCDGVNDCADNSDEVSCPPPTCLPSQFQCGSGYCISQRWVCDGENDCEDSSDEANCAGSVPT
Consider B19, for which the binding result in experiment [1] is given as “binds”.

B20: SEQ ID NO 749 (designed binder)
chain: CGASEFRCDSGHCISPDWRCDGDNDCVDGSDEKSCEQRTCLPSQFQCGSGYCFSQRWVCDGENDCEDGSDEANCAGSVPT
In the case of B20, the binding result in experiment [1] is on record as “binds”. Still for that read-out and setting: next, CLPSEFQCRDSKICLSADWLCDGVNDCVDGSDEAGCPPRT (designed binder) [SEQ ID NO 599]: “binds”.
